Legend:
T4A = target: T1, T4A; assay: flow cytometry, HEK293 transfected with hCCR8 T4A with C-terminal FLAG; sheet prints [huCCR8]=0.02 ug/ml
T1 construct: single alanine mutant of hCCR8; also called hCCR8 T4A
T1 receptor chain: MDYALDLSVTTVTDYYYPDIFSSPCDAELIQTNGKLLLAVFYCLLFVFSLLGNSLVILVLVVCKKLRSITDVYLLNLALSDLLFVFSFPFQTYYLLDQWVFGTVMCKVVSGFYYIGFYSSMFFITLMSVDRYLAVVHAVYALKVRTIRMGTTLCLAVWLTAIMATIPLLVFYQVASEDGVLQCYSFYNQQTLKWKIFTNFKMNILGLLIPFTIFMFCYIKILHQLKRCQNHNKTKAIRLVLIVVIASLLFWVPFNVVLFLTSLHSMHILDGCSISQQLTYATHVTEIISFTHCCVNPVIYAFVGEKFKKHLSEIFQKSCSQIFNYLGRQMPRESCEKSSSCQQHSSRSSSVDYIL
Description: (§1) FIGS. 16A-16B depict the epitope maps for hu.Ab5.H13L1 (FIG. 16A) and hu.Ab4.H12L3 (FIG. 16B) mAbs.
(§2) To epitope map fucosylated hu.Ab5.H13L1, the binding to alanine point mutations in human CCR8 was analyzed by flow cytometry.

S23A = target: T2, S23A; assay: flow cytometry, HEK293 transfected with hCCR8 S23A with C-terminal FLAG; sheet prints [huCCR8]=0.02 ug/ml
T2 construct: single alanine mutant of hCCR8; also called hCCR8 S23A
T2 receptor chain: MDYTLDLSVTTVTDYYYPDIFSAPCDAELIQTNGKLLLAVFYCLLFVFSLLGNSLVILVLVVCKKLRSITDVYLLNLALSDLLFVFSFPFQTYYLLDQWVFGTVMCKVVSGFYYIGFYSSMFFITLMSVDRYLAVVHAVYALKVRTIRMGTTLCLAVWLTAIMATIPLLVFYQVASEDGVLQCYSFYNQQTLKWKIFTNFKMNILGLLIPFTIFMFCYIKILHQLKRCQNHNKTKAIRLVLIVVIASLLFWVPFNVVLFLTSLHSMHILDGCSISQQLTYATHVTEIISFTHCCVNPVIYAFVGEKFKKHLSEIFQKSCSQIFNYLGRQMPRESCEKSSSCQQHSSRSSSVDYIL
Description: as §1, §2

T10A = target: T3, T10A; assay: flow cytometry, HEK293 transfected with hCCR8 T10A with C-terminal FLAG; sheet prints [huCCR8]=0.02 ug/ml
T3 construct: single alanine mutant of hCCR8; also called hCCR8 T10A
T3 receptor chain: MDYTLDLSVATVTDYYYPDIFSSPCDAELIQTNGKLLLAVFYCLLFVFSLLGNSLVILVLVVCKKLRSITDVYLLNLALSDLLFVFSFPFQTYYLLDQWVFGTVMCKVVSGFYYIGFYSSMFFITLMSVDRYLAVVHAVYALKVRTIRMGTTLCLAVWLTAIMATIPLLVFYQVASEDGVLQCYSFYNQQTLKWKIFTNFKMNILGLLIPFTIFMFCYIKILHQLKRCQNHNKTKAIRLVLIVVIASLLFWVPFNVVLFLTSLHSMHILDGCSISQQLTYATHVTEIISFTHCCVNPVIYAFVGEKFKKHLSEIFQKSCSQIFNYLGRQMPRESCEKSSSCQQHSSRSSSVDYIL

T13A = target: T4, T13A; assay: flow cytometry, HEK293 transfected with hCCR8 T13A with C-terminal FLAG; sheet prints [huCCR8]=0.02 ug/ml
T4 construct: single alanine mutant of hCCR8; also called hCCR8 T13A
T4 receptor chain: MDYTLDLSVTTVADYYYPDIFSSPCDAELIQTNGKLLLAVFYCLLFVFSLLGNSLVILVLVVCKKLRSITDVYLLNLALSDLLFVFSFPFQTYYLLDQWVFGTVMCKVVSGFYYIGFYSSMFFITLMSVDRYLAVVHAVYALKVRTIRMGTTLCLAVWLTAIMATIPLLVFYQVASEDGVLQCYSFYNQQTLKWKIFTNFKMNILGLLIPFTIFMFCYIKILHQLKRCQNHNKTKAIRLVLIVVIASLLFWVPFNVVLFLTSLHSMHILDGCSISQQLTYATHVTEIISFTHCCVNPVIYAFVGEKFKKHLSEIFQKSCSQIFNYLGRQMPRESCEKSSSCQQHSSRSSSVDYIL
Description: as §1, §2

Y16A = target: T5, Y16A; assay: flow cytometry, HEK293 transfected with hCCR8 Y16A with C-terminal FLAG; sheet prints [huCCR8]=0.02 ug/ml
T5 construct: single alanine mutant of hCCR8; also called hCCR8 Y16A
T5 receptor chain: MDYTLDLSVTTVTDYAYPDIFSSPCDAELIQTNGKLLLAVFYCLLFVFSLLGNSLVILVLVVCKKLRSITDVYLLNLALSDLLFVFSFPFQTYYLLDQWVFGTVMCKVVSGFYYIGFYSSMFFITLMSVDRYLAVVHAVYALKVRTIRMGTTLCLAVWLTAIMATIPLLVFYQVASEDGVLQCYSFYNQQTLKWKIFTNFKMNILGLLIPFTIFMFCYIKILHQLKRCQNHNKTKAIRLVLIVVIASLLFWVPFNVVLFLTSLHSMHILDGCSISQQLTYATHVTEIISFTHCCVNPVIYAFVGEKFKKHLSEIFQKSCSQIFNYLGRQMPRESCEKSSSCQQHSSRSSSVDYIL

Measured: binding result

B1: hu.Ab5.H13L1 (antibody, human IgG1, kappa)
heavy: not shown
light: DIQVTQSPSSLSASVGDRVTITCQASENIANALAWYQQKPGKPPKFLIYGASNLASGVPSRFSGSGSGTDFTFTISSLQPEDIATYYCQQAYYGNSFVEGTFGGGTKVEIKRTVAAPSVFIFPPSDEQLKSGTASVVCLLNNFYPREAKVQWKVDNALQSGNSQESVTEQDSKDSTYSLSSTLTLSKADYEKHKVYACEVTHQGLSSPVTKSFNRGEC
notes: fucosylated human IgG1; also called Ab5 variant
binds: all assays above

— patent US20230049152A1 (Genentech, published 2023)
